According to article PMC2607554, “In-Vitro Helix Opening of M. tuberculosis oriC by DnaA Occurs at Precise Location and Is Inhibited by IciA Like Protein”:

Molecular target: T1, IciA (rIciA, LysR family) (Mycobacterium tuberculosis H37Rv, UniProt P9WMF5 1-303)
T1 sequence: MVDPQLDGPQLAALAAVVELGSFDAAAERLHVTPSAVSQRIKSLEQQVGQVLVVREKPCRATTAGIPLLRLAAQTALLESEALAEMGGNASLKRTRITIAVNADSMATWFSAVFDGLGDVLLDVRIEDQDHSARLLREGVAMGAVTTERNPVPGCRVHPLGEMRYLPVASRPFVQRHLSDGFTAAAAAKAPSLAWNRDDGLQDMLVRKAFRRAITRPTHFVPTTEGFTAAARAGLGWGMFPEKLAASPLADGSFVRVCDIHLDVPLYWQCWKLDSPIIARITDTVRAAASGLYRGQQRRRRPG
Assay: EMSA; 250-750 ng IciA, 1 ug poly(dI/dC)
Settings: protein: recombinant; tags: His tag (pET28a NdeI/HindIII); chain copies: 4; label: 5' 32P; blunt

B1: A+T rich oriC oligonucleotide (Ori F1/Ori R1) (dsDNA)
DNA 1: TTCTTCCGACAACGTTCTTAAAAAAACTTCTCTA
DNA 2: TAGAGAAGTTTTTTTAAGAACGTTGTCGGAAGAA
- binding result: binds
